In EP3199551:
Like-named read-outs stand apart in the source and are kept apart here.

B1: hu Mab8D5 (IgG4 S228P) (antibody, V domains shown)
VH: EVQLVESGGGLVQPGGSLRLSCAASGFTISSYDMHWVRQATGKGLEWVSVIGPAGDTYYPGSVKGRFTISRENAKNSLYLQMNSLRAGDTAVYYCAREGMAAHNYYGMDVWGQGTTVTVSS
VL: not shown
B2: hu Mab8D5 G1 (IgG1) (antibody, V domains shown)
VH: B1 VH
VL: not shown

Key:
[1] = target: T1, human BTLA (human, UniProt Q7Z6A9); experiment: FACS, 4C
[2] = target: T1, human BTLA; experiment: SPR
[3] = target: T1, human BTLA; experiment: SPR; remark: listed apart in the source

T1 sequence (Q7Z6A9 31-157): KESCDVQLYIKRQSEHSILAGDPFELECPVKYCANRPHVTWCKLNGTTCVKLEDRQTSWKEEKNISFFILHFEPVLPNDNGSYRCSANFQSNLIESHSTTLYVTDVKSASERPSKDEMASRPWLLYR

Binder	EC50 [1] [nM]	Kd [2] [nM]	Kd [3] [nM]
B1	~12	2.99	2.4
B2	~12		
